Patent US20140148356
pKd: −log10 of the molar value.

Assays:
[1] = target: HBcAg (Hepatitis B virus core protein, 21 kDa) (Hepatitis B virus) (UniProt P03146); details: affinity qPCR; 7.6 nM HBcAg, 1 nM DNA
[2] = target: HBcAg (Hepatitis B virus core protein, 21 kDa) (Hepatitis B virus) (UniProt P03146); details: affinity qPCR on Ni-NTA plate; 0.1 nM aptamer, 0.1-5 nM protein; 20 mM Tris-HCl pH 7.6, 5 mM KCl, 100 mM NaCl, 5 mM MgCl2, 1 mM CaCl2, RT 1 h

Sequence of HBcAg (Hepatitis B virus core protein, 21 kDa) (Hepatitis B virus) (P03146 whole entry): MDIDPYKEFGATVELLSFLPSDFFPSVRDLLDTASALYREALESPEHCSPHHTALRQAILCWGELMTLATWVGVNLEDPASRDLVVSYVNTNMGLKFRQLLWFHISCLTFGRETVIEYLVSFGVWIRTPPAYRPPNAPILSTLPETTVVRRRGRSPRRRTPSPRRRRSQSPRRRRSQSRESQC

| Sequence | binding signal [1] [% bound] | pKd [2] |
| --- | --- | --- |
| AGCAGCACAGAGGTCAGATGAGGCCTGGTGATCGTGCCCAGGCCATATGAGCAAGGAACCCCTATGCGTGCTACCGTGAA [A-9] | 1 | – |
| AGCAGCACAGAGGTCAGATGGTTACATGCGCAGTAGCCGACGTACTCTGGTAAAAGGTAGCCTATGCGTGCTACCGTGAA [A-38] | 7.2 | 9.80 |
| AGCAGCACAGAGGTCAGATGTTTCCGAGGGAGTGGAATTAGCAAGGTGGAAGTGTTTCTACCTATGCGTGCTACCGTGAA [A-18] | 8.3 | 9.85 |
| AGCAGCACAGAGGTCAGATGACATCTAGAACCAACGGTTCTGTTTGATGAGAATTCGGCCCCTATGCGTGCTACCGTGAA [A-19] | 1.17 | – |
| AGCAGCACAGAGGTCAGATGTTGCATACGCCAAACAAGCATTGACAAGGTAACCCTGGGCCCTATGCGTGCTACCGTGAA [A-23] | 1.45 | – |
